From the DeepSol protein solubility set

Assay: soluble on expression in E. coli; label from the status in PepcDB or PDB records

Sequence | soluble on expression in E. coli
MGSSHHHHHHGGTGENLYFQGGSGRRLPLFCRRPSRCCGATASGSGSSSAAVLAASAAPSVLVLAARGIATSGRVTNEDRRWWLVHLECAPDVTPGTFVSWLDCCGTHTTKKLIERNIWTIEQVAELDSDRVDELKYKEGCLKMDVVWEHARTIITPLKQREVSGGVESQLQSRILELRKKRELERQRELLARERATVSDKREETLRRLRESVAAKKAALRKKLDEQHGEATPAASESASTEAHRGTAEAAVEDEAVGNIVDRMSGGNPPRA | not soluble
MAHHHHHHMFPQGLIDQWLSKSREGRRSVREDRKATPAILDNIARLEEYCRSHPYDVFCASTLQHPPFALHALESEAAEQQRLAQPPPVFAATVPSPSAHTTASNEVRGGVCGRYADGDESRASVTAARQHLHNVAARLAAYLQSSGAVRSSASRHEEESQCTVVADFFVHLLSEAAVAAVYRQGIAAQVEAEERAAFQHRQSQRRLQLRVDSKHDGTLQRLELSDSKGADTEAVHEVEGLTVVRPIADYRRLSQGLASLWSLLAQTQRRGGLAVGGPSKERSRDSTADTDSVNDNDNLWTRVRVDCLRHWLGDRALPPPPPLPGTAALGETQRKTEASSPAMPGGAWWSRPLYISERDVEFALRKVLADVTASAAS | soluble
EISGFGQCLVWVQCSFPNCGKWRRLCGNIDPSVLPDNWSCDQNTDVQYNRCDIPEETWTGLE | soluble
GMTRSEAQGRLTGLAPVSVIDIGSNSVRLVVYEGLSRAPAVLFNEKVLCGLGKGLALTGRMHEEGVTRALMALRRFHVLSEQAQAQKLYVLATAAAREAENGPDFIREAEAILGCEIEVLSGEKEALYSAYGVISGFYQPDGIAGDLGGGSLELIDIKDKSCGEGITLPLGGLRLSEQSDGSLEKAATIARKHVKSFAKLLAAGEGRTFYAVGGTWRNIAKLHMEISGYPLHMMQGYELPLEEMLNFLEEVIVSRDSKDPAWQAVSKNRRSLLPFGAIAMREVLRAMKPAKIAFSAQGVREGYLYSLLTEAERESDPLLVAADELAILRARSPEHARELADWSGRTFPVFGIDETEEESRYRQAACLLADISWRAHPDYRGLQALNIIAHSSFVAITHPGRAYIALANYYRFEGLNDNGTTEPLAAMAGERLQELGKLLGGLLRVVYLFSASMPGVVDHLKFRKSDNPDIDLEFVVPHDYCDFAGERLDGRLQQLAKLTGKRLAFVFE | soluble
MGSDKIHHHHHHMNLQQLAVFREVMETGSVSAAARNLGRTQPAVSASLKALEVNLGIALFEREGRRLVPVPEAHYLLSEAAEILARVNTTEMNLVGMRNRTRGSLSVVGMPGPSVYLLPDFVSRFGSKADDLKISLSTRSSPQILNLIAAQAFDVGFCDLGFCDMSAEDLNSSLYHTKTIMSDCLCALPAQHPLAGRAVIDARQLSGERMGVLAGTHSTNRDTRAAFEQAGAVFNPRVEAQYFIPLLRFVEAGQICTVLDPLSAETYKRMNGGEVGIWFARFLPSVRFGYSIVTPKQRPLSLLAQDFVDGWSDHVREIIADHS | not soluble
MKIIFLLFGFIFHPNNAQFDKSGVQQTLDAHNEFRSSIAKGTYVTKGLLHAPATNIMKMKWNVTIATAAQNHANKCPKGHDGPLEGVSGECMWSGHINASKGVNHLGAVAAKAWSSEYTKKGWETDVMSDEFFNSGVGHAIIMTWYSQVNVGCGVKLCQKEGDYQLAIVVCKYWGEGQGNGKIMYESGPTCSACPPNTTCDQATGLCDSKIPDIPEPIYKYDELVNSKPAYTVVMGFFLMIIVQLI | not soluble
MKTLFLQYPACSTCQKAKKWLIENNIEYTNRLIVDDNPTVEELKAWIPLSGLPVKKFFNTSGVVYKELKLSSKLPTMTEEEQIALLATNGKLVKRPLVVTERFVLVGFKPEEWEKL | not soluble
MGSDKIHHHHHHMSKWLNVGKIVNTHGVRGEVRVLSTTDFEDDRFSSGKTLYVMRPNQNERVAVTVASHRKHKNFDLLCFEGYPSINDVEAFKGGRLQVPIEDRPELGEGEFFYHEIIGCSVVTIAGEELGKVKEILSPGANDVWVVQCRRGGKDLLIPYIEQVVKQVDLEKQQITIEPMEGLLE | not soluble
MAADVGQALAFLQQVKTTQGASIYEGLKAALAKVLEDRPVNAVEALETSVLSTPPAANLSVPLVPAASAAAAAAAVAKASLFGDPEPVLDPESGEPIDPDAPNEFECEDVEGDGDLLDGLGVGLGRQEMYAAMLAVKRLGEDAKRGVSTVRFFGKFFGTQADYYVFETTLQSNPDMPEAPEGTIPLEPYGEGVNAYIYFVSNTLGGPLQQLPYVTPEQIKASRLLRRYLTGRLDAPVSAFPAFPGNEANYLRALIARISAATVCCPRGFFTADDDSAELSANDEWVPLKGREMALPVNWSHRYAHLKGQGRTVTHKRDPPDEEEEPEKNFWTAEEMEAGPPPLATLDTDAPLPAATGDKVPPPAWSPVFASASVTTRNQVAGVRSNRWPGAVCACAGRHFTSMYVGWGIKAGGEWSPCPPPPPVPQWGAPAAGVEGGQQLLLECNDLPPKPAPPEEEDE | not soluble
MSSRKELANAIRALSMDAVQKAKSGHPGAPMGMADIAEVLWRDFLKHNPQNPSWADRDRFVLSNGHGSMLIYSLLHLTGYDLPMEELKNFRQLHSKTPGHPEVGYTAGVETTTGPLGQGIANAVGMAIAEKTLAAQFNRPGHDIVDHYTYAFMGDGCMMEGISHEVCSLAGTLKLGKLIAFYDDNGISIDGHVEGWFTDDTAMRFEAYGWHVIRDIDGHDAASIKRAVEEARAVTDKPSLLMCKTIIGFGSPNKAGTHDSHGAPLGDAEIALTREQLGWKYAPFEIPSEIYAQWDAKEAGQAKESAWNEKFAAYAKAYPQEAAEFTRRMKGEMPSDFDAKAKEFIAKLQANPAKIASRKASQNAIEAFGPLLPEFLGGSADLAPSNLTLWSGSKAINEDAAGNYIHYGVREFGMTAIANGISLHGGFLPYTSTFLMFVEYARNAVRMAALMKQRQVMVYTHDSIGLGEDGPTHQPVEQVASLRVTPNMSTWRPCDQVESAVAWKYGVERQDGPTALILSRQNLAQQERTEEQLANIARGGYVLKDCAGQPELIFIATGSEVELAVAAYEKLTAEGVKARVVSMPSTDAFDKQDAAYRESVLPKAVTARVAVEAGIADYWYKYVGLNGAIVGMTTFGESAPAELLFEEFGFTVDNVVAKAKELLHHHHHH | soluble
MGINVQFRPMTIHDIDEVVQVERASFTSPWSRESFYNELMYNRYAKYIVMVYNGRIIGYGGMWLVIDEAHVTNVAVLPQFRGQKLGEALMRRLMDMARQHGAATMTLEVRVSNHVAQSLYRKLGFRNGGIRKRYYPDNFEDALVMWVKLR | not soluble
MSLFFSLPYRFNVLSVVIASIPTLAFPTTFSDSTFFHKDWEIVCDNTLTCRAAGYSPEEKGMGEDTGTQDVSLLITRHAGQNTPITAEVTLAEVDKEIPKGTRLTLAIDGVDKGVLTSTEDNLWQLNETQIPAVLQALKGRGKVAFLHDGMVSELSGAGAYAVLLKMDERQGRIGTTDAITKKGNKSSELSAVAAPVIYAAATSQEPSRNLTNAEQAAIQKKLLKTLKEDDCYDFPPQEERVAEPMMITPLNGSMSLLSTLCWRAAYNEGYAYWVIDNAMQTQPQLMTTIGVGYENGEITAVQKGRGLADCMSDSAWVWDGKTFQQSRASITGSCRMIRLGGTWDLPYWTATVIRPGKEGHHHHHH | soluble
GLLMEGDEPAGGKWNFDTENRKPAAPDLLRPRPLRFEPDAEVRAVLDLVEARFPRHFGRLRPFHWATDRAEALRALDHFIRESLPRFGDEQDAMLADDPFLSHALLSSSMNLGLLGPMEVCRRAETEWREGRAPLNAVEGFIRQILGWREYVRGIWTLSGPDYI | not soluble
MGSDKIHHHHHHMLTHYRDYESFKQVAIPLLERRPDVHQLPLGILERGDVPILMAIAEEGDRTIVVLQTIEEQAILAGDVFTYEGIRKLSRILNCPGYVGEQAIIEPLLASHSPFQIKMDQGIYTLTTVIPPVTLDYEFRLIEERFAPQAVAFGWSFIQETGALPATERSRLKNEQTIRKHIEAETLFGLFDGEQLLAMASSSRPTASGVTISYVFTPPKWRKQGIASYLVACLSEHLLQQYPMVSLYTDWSNKTSNKIYQAVGFELAGRSMQITKRPKYQ | not soluble
YYTDPSLIRQMWDKLERDGFTGGKILDPSMGTGNFFAAMPKHLREKSELYGVELDTITGAIAKHLHPNSHIEIKGFETVAFNDNSFDLVISNVPFANIRIADNRYDRPYMIHDYFVKKSLDLLHDGGQVAIISSTGTMDKRTENILQDIRETTEFLGGVRLPDSAFKAIAGTSVTTDMLFFQKHLDKGYVA | not soluble
